From patent US20130288389A1

Target: human rPrP^C 23-231 (human) (UniProt P04156)
Assay: cell-based or functional assay

Substance: human sporadic CJD (sCJD) brain homogenate PrP-res (from UniProt P04156 23-230)
- eQuIC seeded conversion of substrate: lowest PrP-res amount detected: 1 fg
